# ± gives the uncertainty stated by the source.
# B1: Chromodomain-helicase-DNA-binding protein 7, residues 2564 to 2605; numbered along this chain, Q9P2D1 (parent)
# chain: DPDTRIPVINLEDGTRLVGEDAPKNKDLVEWLKLHPTYTVDM
# Variants of: B1
# Test: abundance fitness (aPCA) (normalised: wild type 0, dead -1); higher = more abundant; growth selection in yeast, the domain comes from the species named
# Conditions: Homo sapiens
row,Variant,abundance fitness
1,DPDTRIPVINLEDGTRLYGEDAPKNKDLVEWLKLHPTYTVDM [V18Y],-0.065 ± 0.078
2,DPDTRIPVINLEDGTRLGGEDAPKNKDLVEWLKLHPTYTVDM [V18G],-0.04 ± 0.059
3,DPDTRIPVINLEDGTRLLGEDAPKNKDLVEWLKLHPTYTVDM [V18L],-0.131 ± 0.071
4,DPDTRIPVINLEDGTRLWGEDAPKNKDLVEWLKLHPTYTVDM [V18W],-0.132 ± 0.053
5,DPDTRIPVINLEDGTRLMGEDAPKNKDLVEWLKLHPTYTVDM [V18M],0.091 ± 0.062
6,DPDTRIPVINLEDGTRLSGEDAPKNKDLVEWLKLHPTYTVDM [V18S],0.076 ± 0.073
7,DPDTRIPVINLEDGTRLVKEDAPKNKDLVEWLKLHPTYTVDM [G19K],-0.262 ± 0.15
8,DPDTRIPVINLEDGTRLVREDAPKNKDLVEWLKLHPTYTVDM [G19R],-0.59 ± 0.1
9,DPDTRIPVINLEDGTRLVNEDAPKNKDLVEWLKLHPTYTVDM [G19N],-0.264 ± 0.16
10,DPDTRIPVINLEDGTRLVSEDAPKNKDLVEWLKLHPTYTVDM [G19S],-0.468 ± 0.062
11,DPDTRIPVINLEDGTRLVWEDAPKNKDLVEWLKLHPTYTVDM [G19W],-0.638 ± 0.082
12,DPDTRIPVINLEDGTRLVFEDAPKNKDLVEWLKLHPTYTVDM [G19F],-0.852 ± 0.13
13,DPDTRIPVINLEDGTRLVIEDAPKNKDLVEWLKLHPTYTVDM [G19I],-0.644 ± 0.075
14,DPDTRIPVINLEDGTRLVTEDAPKNKDLVEWLKLHPTYTVDM [G19T],-0.741 ± 0.08
15,DPDTRIPVINLEDGTRLVVEDAPKNKDLVEWLKLHPTYTVDM [G19V],-0.64 ± 0.079
16,DPDTRIPVINLEDGTRLVMEDAPKNKDLVEWLKLHPTYTVDM [G19M],-0.442 ± 0.073
17,DPDTRIPVINLEDGTRLVLEDAPKNKDLVEWLKLHPTYTVDM [G19L],-0.518 ± 0.13
18,DPDTRIPVINLEDGTRLVAEDAPKNKDLVEWLKLHPTYTVDM [G19A],-0.292 ± 0.11
19,DPDTRIPVINLEDGTRLVDEDAPKNKDLVEWLKLHPTYTVDM [G19D],-0.125 ± 0.065
20,DPDTRIPVINLEDGTRLVEEDAPKNKDLVEWLKLHPTYTVDM [G19E],-0.093 ± 0.11

row,Variant,abundance fitness
1,DPDTRIPVINLEDGTRLVQEDAPKNKDLVEWLKLHPTYTVDM [G19Q],-0.437 ± 0.12
2,DPDTRIPVINLEDGTRLVHEDAPKNKDLVEWLKLHPTYTVDM [G19H],-0.478 ± 0.077
3,DPDTRIPVINLEDGTRLVYEDAPKNKDLVEWLKLHPTYTVDM [G19Y],-0.45 ± 0.12
4,DPDTRIPVINLEDGTRLVGMDAPKNKDLVEWLKLHPTYTVDM [E20M],-0.235 ± 0.15
5,DPDTRIPVINLEDGTRLVGLDAPKNKDLVEWLKLHPTYTVDM [E20L],-0.369 ± 0.088
6,DPDTRIPVINLEDGTRLVGFDAPKNKDLVEWLKLHPTYTVDM [E20F],-0.365 ± 0.085
7,DPDTRIPVINLEDGTRLVGDDAPKNKDLVEWLKLHPTYTVDM [E20D],-0.059 ± 0.059
8,DPDTRIPVINLEDGTRLVGNDAPKNKDLVEWLKLHPTYTVDM [E20N],-0.167 ± 0.064
9,DPDTRIPVINLEDGTRLVGIDAPKNKDLVEWLKLHPTYTVDM [E20I],-0.208 ± 0.063
10,DPDTRIPVINLEDGTRLVGSDAPKNKDLVEWLKLHPTYTVDM [E20S],-0.159 ± 0.063
11,DPDTRIPVINLEDGTRLVGTDAPKNKDLVEWLKLHPTYTVDM [E20T],-0.027 ± 0.082
12,DPDTRIPVINLEDGTRLVGVDAPKNKDLVEWLKLHPTYTVDM [E20V],-0.195 ± 0.049
13,DPDTRIPVINLEDGTRLVGGDAPKNKDLVEWLKLHPTYTVDM [E20G],-0.196 ± 0.049
14,DPDTRIPVINLEDGTRLVGHDAPKNKDLVEWLKLHPTYTVDM [E20H],-0.498 ± 0.15
15,DPDTRIPVINLEDGTRLVGCDAPKNKDLVEWLKLHPTYTVDM [E20C],-0.264 ± 0.056
16,DPDTRIPVINLEDGTRLVGADAPKNKDLVEWLKLHPTYTVDM [E20A],-0.163 ± 0.11
17,DPDTRIPVINLEDGTRLVGKDAPKNKDLVEWLKLHPTYTVDM [E20K],-0.125 ± 0.1
18,DPDTRIPVINLEDGTRLVGRDAPKNKDLVEWLKLHPTYTVDM [E20R],-0.189 ± 0.055
19,DPDTRIPVINGEDGTRLVGEDAPKNKDLVEWLKLHPTYTVDM [L11G],0.094 ± 0.064
20,DPDTRIPVINTEDGTRLVGEDAPKNKDLVEWLKLHPTYTVDM [L11T],0.353 ± 0.067

row,Variant,abundance fitness
1,DPDTRIPVINKEDGTRLVGEDAPKNKDLVEWLKLHPTYTVDM [L11K],0.005 ± 0.11
2,DPDTRIPVINMEDGTRLVGEDAPKNKDLVEWLKLHPTYTVDM [L11M],0.355 ± 0.16
3,DPDTRIPVINSEDGTRLVGEDAPKNKDLVEWLKLHPTYTVDM [L11S],0.193 ± 0.053
4,DPDTRIPVINHEDGTRLVGEDAPKNKDLVEWLKLHPTYTVDM [L11H],0.293 ± 0.073
5,DPDTRIPVINYEDGTRLVGEDAPKNKDLVEWLKLHPTYTVDM [L11Y],0.064 ± 0.099
6,DPDTRIPVINREDGTRLVGEDAPKNKDLVEWLKLHPTYTVDM [L11R],-0.104 ± 0.084
7,DPDTRIPVINNEDGTRLVGEDAPKNKDLVEWLKLHPTYTVDM [L11N],0.242 ± 0.071
8,DPDTRIPVINIEDGTRLVGEDAPKNKDLVEWLKLHPTYTVDM [L11I],0.214 ± 0.085
9,DPDTRIPVINLEDGFRLVGEDAPKNKDLVEWLKLHPTYTVDM [T15F],-0.218 ± 0.087
10,DPDTRIPVINLEDGPRLVGEDAPKNKDLVEWLKLHPTYTVDM [T15P],-0.252 ± 0.16
11,DPDTRIPVINLEDGVRLVGEDAPKNKDLVEWLKLHPTYTVDM [T15V],0.023 ± 0.068
12,DPDTRIPVINLEDGRRLVGEDAPKNKDLVEWLKLHPTYTVDM [T15R],0.064 ± 0.1
13,DPDTRIPVINLEDGGRLVGEDAPKNKDLVEWLKLHPTYTVDM [T15G],0.081 ± 0.053
14,DPDTRIPVINLEDGDRLVGEDAPKNKDLVEWLKLHPTYTVDM [T15D],0.018 ± 0.096
15,DPDTRIPVINLEDGLRLVGEDAPKNKDLVEWLKLHPTYTVDM [T15L],-0.055 ± 0.083
16,DPDTRIPVINLEDGMRLVGEDAPKNKDLVEWLKLHPTYTVDM [T15M],-0.264 ± 0.15
17,DPDTRIPVINLEDGKRLVGEDAPKNKDLVEWLKLHPTYTVDM [T15K],0.051 ± 0.21
18,DPDTRIPVINLEDGNRLVGEDAPKNKDLVEWLKLHPTYTVDM [T15N],0.117 ± 0.07
19,DPDTRIPVINLEDGHRLVGEDAPKNKDLVEWLKLHPTYTVDM [T15H],-0.128 ± 0.19
20,DPDTRIPVINLEDGARLVGEDAPKNKDLVEWLKLHPTYTVDM [T15A],0.069 ± 0.082
